Experimental data: the supplement of paper PMC5998384

Legend:
HeLa Kyoto [1] = test: solubility in G1/S (NP-40 vs SDS abundance) (log2 ratio); higher = more soluble; conditions: cell cycle stage: G1/S
HeLa Kyoto [2] = test: solubility change mitosis vs G1/S (difference of NP-40 vs SDS log2 ratios) (log2 ratio difference); higher = more soluble in mitosis
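Wherever solubility change mitosis vs G1/S (difference of NP-40 vs SDS log2 ratios) is given: synchronized HeLa Kyoto cells (double thymidine block for G1/S, nocodazole release for mitosis), protein amounts in NP-40 versus SDS lysates quantified by mass spectrometry, three biological replicates.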
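Wherever solubility in G1/S (NP-40 vs SDS abundance) is given: HeLa Kyoto cells arrested at G1/S by double thymidine block, proteins quantified by TMT10plex mass spectrometry in mild NP-40 versus SDS extracts, three biological replicates.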

Sequence	solubility in G1/S (log2) (HeLa Kyoto [1])	solubility change mitosis (log2) (HeLa Kyoto [2])
MSDIVEKTLTALPGLFLQNQPGGGPAAAKASFSSRLGSLVRGITALTSKHEEEKLIQQELSSLKATVSAPTTTLKMMKECMVRLIYCEMLGYDASFGYIHAIKLAQQGNLLEKRVGYLAVSLFLHESHELLLLLVNTVVKDLQSTNLVEVCMALTVVSQIFPCEMIPAVLPLIEDKLQHSKEIVRRKAVLALYKFHLIAPNQVQHIHIKFRKALCDRDVGVMAASLHIYLRMIKENSSGYKDLTGSFVTILKQVVGGKLPVEFNYHSVPAPWLQIQLLRILGLLGKDDQRTSELMYDVLDESLRRAELNHNVTYAILFECVHTVYSIYPKSELLEKAAKCIGKFVLSPKINLKYLGLKALTYVIQQDPTLALQHQMTIIECLDHPDPIIKRETLELLYRITNAQNITVIVQKMLEYLHQSKEEYVIVNLVGKIAELAEKYAPDNAWFIQTMNAVFSVGGDVMHPDIPNNFLRLLAEGFDDETEDQQLRLYAVQSYLTLLDMENVFYPQRFLQVMSWVLGEYSYLLDKETPEEVIAKLYKLLMNDSVSSETKAWLIAAVTKLTSQAHSSNTVERLIHEFTISLDTCMRQHAFELKHLHENVELMKSLLPVDRSCEDLVVDASLSFLDGFVAEGLSQGAAPYKPPHQRQEEKLSQEKVLNFEPYGLSFSSSGFTGRQSPAGISLGSDVSGNSAETGLKETNSLKLEGIKKLWGKEGYLPKKESKTGDESGALPVPQESIMENVDQAITKKDQSQVLTQSKEEKEKQLLASSLFVGLGSESTINLLGKADTVSHKFRRKSKVKEAKSGETTSTHNMTCSSFSSLSNVAYEDDYYSNTLHDTGDKELKKFSLTSELLDSESLTELPLVEKFSYCSLSTPSLFANNNMEIFHPPQSTAASVAKESSLASSFLEETTEYIHSNAMEVCNNETISVSSYKIWKDDCLLMVWSVTNKSGLELKSADLEIFPAENFKVTEQPGCCLPVMEAESTKSFQYSVQIEKPFTEGNLTGFISYHMMDTHSAQLEFSVNLSLLDFIRPLKISSDDFGKLWLSFANDVKQNVKMSESQAALPSALKTLQQKLRLHIIEIIGNEGLLACQLLPSIPCLLHCRVHADVLALWFRSSCSTLPDYLLYQCQKVMEGS [AP4E1]	-0.402	-0.0567
MYTITKGPSKLVAQRRTGPTQQQVEGRLGELLKCRQPAPPTSQPPRAQPFAQPPGPWPLSSPGPRLVFNRVNGRRAPSTSPSFEGTQETYTVAHEENVRFVSEAWQQVQQQLDGGPAGEGGPRPVQYVERTPNPRLQNFVPIDLDEWWAQQFLARITSCS [FAM195A]	-0.457	0.195
MASEAPSPPRSPPPPTSPEPELAQLRRKVEKLERELRSCKRQVREIEKLLHHTERLYQNAESNNQELRTQVEELSKILQRGRNEDNKKSDVEVQTENHAPWSISDYFYQTYYNDVSLPNKVTELSDQQDQAIETSILNSKDHLQVENDAYPGTDRTENVKYRQVDHFASNSQEPASALATEDTSLEGSSLAESLRAAAEAAVSQTGFSYDENTGLYFDHSTGFYYDSENQLYYDPSTGIYYYCDVESGRYQFHSRVDLQPYPTSSTKQSKDKKLKKKRKDPDSSATNEEKDLNSEDQKAFSVEHTSCNEEENFANMKKKAKIGIHHKNSPPKVTVPTSGNTIESPLHENISNSTSFKDEKIMETDSEPEEGEITDSQTEDSYDEAITSEGNVTAEDSEDEDEDKIWPPCIRVIVIRSPVLQIGSLFIITAVNPATIGREKDMEHTLRIPEVGVSKFHAEIYFDHDLQSYVLVDQGSQNGTIVNGKQILQPKTKCDPYVLEHGDEVKIGETVLSFHIHPGSDTCDGCEPGQVRAHLRLDKKDESFVGPTLSKEEKELERRKELKKIRVKYGLQNTEYEDEKTLKNPKYKDRAGKRREQVGSEGTFQRDDAPASVHSEITDSNKGRKMLEKMGWKKGEGLGKDGGGMKTPIQLQLRRTHAGLGTGKPSSFEDVHLLQNKNKKNWDKARERFTENFPETKPQKDDPGTMPWVKGTLE [AGGF1]	-0.292	-0.0218
MPVQAAQWTEFLSCPICYNEFDENVHKPISLGCSHTVCKTCLNKLHRKACPFDQTAINTDIDVLPVNFALLQLVGAQVPDHQSIKLSNLGENKHYEVAKKCVEDLALYLKPLSGGKGVASLNQSALSRPMQRKLVTLVNCQLVEEEGRVRAMRAARSLGERTVTELILQHQNPQQLSANLWAAVRARGCQFLGPAMQEEALKLVLLALEDGSALSRKVLVLFVVQRLEPRFPQASKTSIGHVVQLLYRASCFKVTKRDEDSSLMQLKEEFRSYEALRREHDAQIVHIAMEAGLRISPEQWSSLLYGDLAHKSHMQSIIDKLQSPESFAKSVQELTIVLQRTGDPANLNRLRPHLELLANIDPNPDAVSPTWEQLENAMVAVKTVVHGLVDFIQNYSRKGHETPQPQPNSKYKTSMCRDLRQQGGCPRGTNCTFAHSQEELEKYRLRNKKINATVRTFPLLNKVGVNNTVTTTAGNVISVIGSTETTGKIVPSTNGISNAENSVSQLISRSTDSTLRALETVKKVGKVGANGQNAAGPSADSVTENKIGSPPKTPVSNVAATSAGPSNVGTELNSVPQKSSPFLTRVPVYPPHSENIQYFQDPRTQIPFEVPQYPQTGYYPPPPTVPAGVAPCVPRFVRSNNVPESSLPPASMPYADHYSTFSPRDRMNSSPYQPPPPQPYGPVPPVPSGMYAPVYDSRRIWRPPMYQRDDIIRSNSLPPMDVMHSSVYQTSLRERYNSLDGYYSVACQPPSEPRTTVPLPREPCGHLKTSCEEQIRRKPDQWAQYHTQKAPLVSSTLPVATQSPTPPSPLFSVDFRADFSESVSGTKFEEDHLSHYSPWSCGTIGSCINAIDSEPKDVIANSNAVLMDLDSGDVKRRVHLFETQRRTKEEDPIIPFSDGPIISKWGAISRSSRTGYHTTDPVQATASQGSATKPISVSDYVPYVNAVDSRWSSYGNEATSSAHYVERDRFIVTDLSGHRKHSSTGDLLSLELQQAKSNSLLLQREANALAMQQKWNSLDEGRHLTLNLLSKEIELRNGELQSDYTEDATDTKPDRDIELELSALDTDEPDGQSEPIEEILDIQLGISSQNDQLLNGMAVENGHPVQQHQKEPPKQKKQSLGEDHVILEEQKTILPVTSCFSQPLPVSISNASCLPITTSVSAGNLILKTHVMSEDKNDFLKPVANGKMVNS [RC3H2]	0.279	-0.128
MATPGSEPQPFVPALSVATLHPLHHPHHHHHHHQHHGGTGAPGGAGGGGGGSGGFNLPLNRGLERALEEAANSGGLNLSARKLKEFPRTAAPGHDLSDTVQADLSKNRLVEVPMELCHFVSLEILNLYHNCIRVIPEAIVNLQMLTYLNLSRNQLSALPACLCGLPLKVLIASNNKLGSLPEEIGQLKQLMELDVSCNEITALPQQIGQLKSLRELNVRRNYLKVLPQELVDLSLVKFDFSCNKVLVIPICFREMKQLQVLLLENNPLQSPPAQICTKGKVHIFKYLSIQACQIKTADSLYLHTMERPHLHQHVEDGKKDSDSGVGSDNGDKRLSATEPSDEDTVSLNVPMSNIMEEEQIIKEDSCHRLSPVKGEFHQEFQPEPSLLGDSTNSGEERDQFTDRADGLHSEFMNYKARAEDCEELLRIEEDVHWQTEGIISSSKDQDMDIAMIEQLREAVDLLQDPNGLSTDITERSVLNLYPMGSAEALELQDSALNGQIQLETSPVCEVQSDLTLQSNGSQYSPNEIRENSPAVSPTTNSTAPFGLKPRSVFLRPQRNLESIDPQFTIRRKMEQMREEKELVEQLRESIEMRLKVSLHEDLGAALMDGVVLCHLVNHIRPRSVASIHVPSPAVPKLSMAKCRRNVENFLEACRKLGVPEADLCSPCDILQLDFRHIRKTVDTLLALGEKAPPPTSALRSRDLIGFCLVHILFIVLVYITYHWNALSA [LRCH1]	-0.0599	-0.186
MRAPIPEPKPGDLIEIFRPFYRHWAIYVGDGYVVHLAPPSEVAGAGAASVMSALTDKAIVKKELLYDVAGSDKYQVNNKHDDKYSPLPCSKIIQRAEELVGQEVLYKLTSENCEHFVNELRYGVARSDQVRDVIIAASVAGMGLAAMSLIGVMFSRNKRQKQ [PLA2G16]	0.0787	-0.137
MEGSFSDGGALPEGLAEEAEPQGAAWSGDSGTVSQSHSSASGPWEDEGAEDGAPGRDLPLLRRAAAGYAACLLPGAGARPEVEALDASLEDLLTRVDEFVGMLDMLRGDSSHVVSEGVPRIHAKAAEMRRIYSRIDRLEAFVRMVGGRVARMEEQVTKAEAELGTFPRAFKKLLHTMNVPSLFSKSAPSRPQQAGYEAPVLFRTEDYFPCCSERPQL [BLOC1S4]	0.477	0.323
MLTEASLSIWGWGSLGIVLFLITFGPFVIFYLTFYILCFVGGGLVVTLLFGKTNSEKYLEQCEHSFLPPTSPGVPKCLEEMKREARTIKIDRRLTGANIIDEPLQQVIQFSLRDYVQYWYYTLSDDESFLLEIRQTLQNALIQFATRSKEIDWQPYFTTRIVDDFGTHLRVFRKAQQKITEKDDQVKGTAEDLVDTFFEVEVEMEKEVCRDLVCTSPKDEEGFLRDLCEVLLYLLLPPGDFQNKIMRYFVREILARGILLPLINQLSDPDYINQYVIWMIRDSNCNYEAFMNIIKLSDNIGELEAVRDKAAEELQYLRSLDTAGDDINTIKNQINSLLFVKKVCDSRIQRLQSGKEINTVKLAANFGKLCTVPLDSILVDNVALQFFMDYMQQTGGQAHLFFWMTVEGYRVTAQQQLEVLLSRQRDGKHQTNQTKGLLRAAAVGIYEQYLSEKASPRVTVDDYLVAKLADTLNHEDPTPEIFDDIQRKVYELMLRDERFYPSFRQNALYVRMLAELDMLKDPSFRGSDDGDGESFNGSPTGSINLSLDDLSNVSSDDSVQLHAYISDTVYADYDPYAVAGVCNDHGKTYALYAITVHRRNLNSEEMWKTYRRYSDFHDFHMRITEQFESLSSILKLPGKKTFNNMDRDFLEKRKKDLNAYLQLLLAPEMMKASPALAHYVYDFLENKAYSKGKGDFARKMDTFVNPLRNSMRNVSNAVKSLPDSLAEGMTKMSDNMGKMSERLGQDIKQSFFKVPPLIPKTDSDPEHRRVSAQLDDNVDDNIPLRVMLLLMDEVFDLKERNQWLRRNIKNLLQQLIRATYGDTINRKIVDHVDWMTSPEQVADSVKRFRDAFWPNGILAEAVPCRDKSIRMRTRVAGKTKLLAIMPDELKHIIGAETTRKGILRVFEMFQHNQLNRRMVYVFLEGFLETLFPQYKFRELFNKLHSRSKQMQKYKQKLQTTQAPSLQKR [SNX13]	-0.221	-0.0268
MSAALLRRGLELLAASEAPRDPPGQAKPRGAPVKRPRKTKAIQAQKLRNSAKGKVPKSALDEYRKRECRDHLRVNLKFLTRTRSTVAESVSQQILRQNRGRKACDRPVAKTKKKKAEGTVFTEEDFQKFQQEYFGS [RPS19BP1]	-0.897	0.671
MSNNLRRVFLKPAEENSGNASRCVSGCMYQVVQTIGSDGKNLLQLLPIPKSSGNLIPLVQSSVMSDALKGNTGKPVQVTFQTQISSSSTSASVQLPIFQPASSSNYFLTRTVDTSEKGRVTSVGTGNFSSSVSKVQSHGVKIDGLTMQTFAVPPSTQKDSSFIVVNTQSLPVTVKSPVLPSGHHLQIPAHAEVKSVPASSLPPSVQQKILATATTSTSGMVEASQMPTVIYVSPVNTVKNVVTKNFQNIYPKPVTEIAKPVILNTTQIPKNVATETQLKGGQHSQAAPVKWIFQDNLQPFTPSLVPVKSSNNVASKILKTFVDRKNLGDNTINMPPLSTIDPSGTRSKNMPIKDNALVMFNGKVYLLAKKGTDVLPSQIDQQNSVSPDTPVRKDTLQTVSSSPVTEISREVVNIVLAKSKSSQMETKSLSNTQLASMANLRAEKNKVEKPSPSTTNPHMNQSSNYLKQSKTLFTNPIFPVGFSTGHNAPRKVTAVIYARKGSVLQSIEKISSSVDATTVTSQQCVFRDQEPKIHNEMASTSDKGAQGRNDKKDSQGRSNKALHLKSDAEFKKIFGLTKDLRVCLTRIPDHLTSGEGFDSFSSLVKSGTYKETEFMVKEGERKQQNFDKKRKAKTNKKMDHIKKRKTENAYNAIINGEANVTGSQLLSSILPTSDVSQHNILTSHSKTRQEKRTEMEYYTHEKQEKGTLNSNAAYEQSHFFNKNYTEDIFPVTPPELEETIRDEKIRRLKQVLREKEAALEEMRKKMHQK [LRIF1]	-0.92	0.89
